Experimental data as given in patent publication US12180255B2, “Compositions and methods for derepressing RE1 silencing transcription factor target genes” (Alcamena Stem Cell Therapeutics, LLC, priority 2019, dated 2024).
[ ]: non-standard residue; d: D form. ξ: configuration not given here. ξGly(dodecyl) = CCCCCCCCCCCCC(N)C(=O)O

Test system: L5 DRGs
Assay: qRT-PCR mRNA expression in ex vivo cultured L5 DRGs
Assay type: cell-based, Sprague Dawley rat
Details: DRG; 1 μM; 48 h
Method: FIG. 15. […] Error bars =standard error of the mean.
L5 DRGs were dissected from adult male rats and plated in 12-well plates pre-coated with poly-D-Lysine (PDL) and laminin in a minimal volume of medium (250 ul Neurobasal™-A medium (GIBCO) supplemented with B27 (GIBCO), 50 ng/ml NGF (Sigma-Aldrich) and penicillin streptomycin) to allow attachment to the culture plate. One day after plating, DRGs were incubated with RPP (SEQ. ID NO: 12: 1 μM, 3 μM or 10 μM in culture medium, FIGS. 14 and 16; SEQ ID NOS: 13 and 14: 3 μM, FIG. 15) for 48 h. For RNA expression analysis, DRGs were lysed in 300 μl of Qiazol in a 1.5 ml tube containing Bullet Blender Pink Beads using a Bullet Blender Tissue Homogenizer (NextAdvance). Total RNA was extracted using RNeasy Midi Kit (Qiagen) according to manufacturer's instructions. Purified RNA was quantified with NanoDrop 2000 (ThermoFIsher), and reverse transcription was run using High Capacity cDNA Reverse Transcription Kit (Applied Biosystems) and 2 ng/ul RNA per reaction. For qRT-PCR, 5 ul of cDNA (corresponding to 10 ng of RNA) were mixed with to 10 ul SsoAdvanced™ Universal SYBR® Green Supermix (BioRad) and 1 ul of each primer (final primer concentration 500 nM each). Reactions were run in triplicates in a QuantStudio™ 7 Flex Real-Time PCR system (Applied Biosystems). Amplification data were analyzed using the comparative cycle threshold (ΔΔCt) method and β-actin as calibrator. Primers were as follows: β-actin: F-[…] (SEQ ID NO: 340), R-[…] (SEQ ID NO: 333); KV4.3: F-[…] (SEQ ID NO: 341), R-[…] (SEQ ID NO: 342); KV7.2 F-[…] AG (SEQ ID NO: 343), R-[…] (SEQ ID NO: 344); OPRM1: F-[…] (SEQ ID NO: 345), R-[…] (SEQ ID NO: 346).

Substance	Increase, Nav1.8 mRNA [x]
SEQ ID NO: 14: RPP fused to an intracellular transport peptide and cyclized; sequence in Table 19 (cyclo([dR][dR][ξGly(dodecyl)][dR][dR][dR][dK][dP][dL][dP][dP][dE][dP][dP][dE][dL][dD][dE]); SMILES CCCCCCCCCCCCC1NC(=O)[C@@H](CCCNC(=N)N)NC(=O)[C@@H](CCCNC(=N)N)NC(=O)[C@@H](CCC(=O)O)NC(=O)[C@@H](CC(=O)O)NC(=O)[C@@H](CC(C)C)NC(=O)[C@@H](CCC(=O)O)NC(=O)[C@H]2CCCN2C(=O)[C@H]2CCCN2C(=O)[C@@H](CCC(=O)O)NC(=O)[C@H]2CCCN2C(=O)[C@H]2CCCN2C(=O)[C@@H](CC(C)C)NC(=O)[C@H]2CCCN2C(=O)[C@@H](CCCCN)NC(=O)[C@@H](CCCNC(=N)N)NC(=O)[C@@H](CCCNC(=N)N)NC(=O)[C@@H](CCCNC(=N)N)NC1=O)	13

Target: T1, CTDSP1 (Homo sapiens, UniProt Q9GZU7)
T1 construct: GSGS linker + His6 (C)
T1 sequence (Q9GZU7 with tags, fused parts or gaps): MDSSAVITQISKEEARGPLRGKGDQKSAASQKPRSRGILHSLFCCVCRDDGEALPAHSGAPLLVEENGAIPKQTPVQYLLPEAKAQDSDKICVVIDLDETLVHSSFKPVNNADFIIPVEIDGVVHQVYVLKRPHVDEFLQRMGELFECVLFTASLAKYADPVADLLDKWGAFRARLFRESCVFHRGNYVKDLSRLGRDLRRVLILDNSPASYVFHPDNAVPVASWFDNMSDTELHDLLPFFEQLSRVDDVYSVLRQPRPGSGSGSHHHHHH
Assay: In vitro CTDSP1 phosphatase activity on phosphorylated REST peptide
Assay type: biochemical
Details: 1 μM peptide-GST fusion; relative to GST control; substrate TEDpSPPpSPPLPKEN
Method: FIG. 25. In vitro CTDSP1 phosphatase activity (relative to GST control) on the REST peptide (TEDpSPPp[…] (SEQ ID NO: 329)) as a substrate after exposure to 1 μM of RPP (SEQ ID NO: 1) or one of its variants (Table 3).
FIG. 26. […] N=5, error bars are standard deviation.
Results: FIG. 25—The top 51 most abundant RPP variants identified in the RNA display/protein evolution screen are listed in-Table 3 in the order of most (V1) to least (V51) abundant peptides. The primers used to make these peptides are listed in-Table 5. A phosphatase activity screen (Table 6, FIG. 25) was used to assess the ability of the top 51 RPPV to inhibit CTDSP1 phosphatase activity at amino acids 861 and 864 on the endogenous phosphorylated REST peptide (TEDpSPPp[…] (SEQ ID NO: 329)).
The phosphorylated REST peptide (TEDpSPPp[…] (SEQ ID NO: 329)) was synthesized by GeneScript. Phosphatase reactions were performed with 10 mM Tris pH 8, 10 mM MgCl2, 100 nM CTDSP1, 0.5 μM phosphate sensor (Thermo Fischer), 50 μM of REST peptide and various concentrations of peptide-GST fusions at room temperature for 10 min. All assays were performed in 96-well pates (Corning P/N 3686) rinsed with water 10 times. Fluorescence was measured by BioTek Synergy HTX using kinetic read with excitation at 420/27 nm and emission at 485/20 nm.

Substance	Relative Phosphatase activity
MCIADPEPPEAQLPEGNC [v14]	0.54
MCPEDLQPPEPALPEKKKKKIVVLALVVKSAVSVGVV [v41]	0.46
MCPGDLKQPEPPMPKEYC [v11]	0.13
MCSEAQEPPESRLPQVNC [v16]	0.79
MCSVDLQPPARLRPMVNC [v20]	0.13
MCTAAPEPPEPPVSKEYC [v18]	0.43
MCTADLEPPEPRMEKKKVDC [v5]	0.49
MCTADLKPPKTTMTKQNC [v10]	0.84
MCTEAPAPPEPALPKKKKKKNC [v26]	0.46
MCTEAPAPPEPALPKKKKKNC [v2]	0.66
MCTEAPAPPEPALPKKKKKNC [v27]	0.19
MCTEAPAPPEPALPKKKKNC [v4]	0.67
MCTEDLEPPKATMTKKDC [v12]	0.41
MCTEDLQLPKTTMTKEYC [v19]	0.76
MCTEDLQPPEPQLPEVNC [v23]	0.60
MCTEDLQSPKTTMTKENC [v7]	0.24
MCTEDLQSPKTTMTKENC [v28]	0.33
MCTEDMEPRKTTMTKKYC [v25]	0.63
MCTEDQEQQEEQLPEENC [v9]	0.65
MCTEDQERPPVTKEDC [v13]	0.20
MCTGDLKLPEPPMSKKKKKNC [v29]	0.17
MCTGDLQPPEAQVIEVNC [v22]	0.59
MCTGDLQPPESRQPQVNC [v21]	0.26
MCTGDLQPPKTTVSKKDC [v6]	0.77
MCTGVQEPPEATLPKKNC [v15]	0.70
MCTKHLEPPGPPLPQENC [v17]	0.24

Next, values leading:

Relative Phosphatase activity	Substance
0.97	MCAEDLQPPPLLEAHCGSDSGRKKRRQC [v43]
0.00	MCAGDLEQPEPPVAKKKKKNC [v33]
0.59	MCAGDLKPPETTMSKKNC [v39]
0.68	MCNEALEPPPLRKEHC [v36]
0.74	MCNGDLERPEPPVAKEYC [v34]
0.16	MCPEDLERPPLTKEHC [v37]
0.43	MCSEDPEPPKTTMTKKNC [v31]
0.37	MCSVDLQPPARLRPMVNC [v46]
0.53	MCTAAPEPPEPQLPQANC [v44]
0.58	MCTADLQPPEASLPQQNC [v49]
0.20	MCTEALEPPEPPLTKENC [v47]
0.28	MCTEDLEPPERPLPREIC [v38]
0.89	MCTEDLKPPEASLPEENC [v32]
0.07	MCTEDLKPPEPPLPKENC [v35]
0.62	MCTEDLQPPKTTMAEKYC [v30]
0.29	MCTEDLQQPERSQPMESC [v40]
0.48	MCTEVLVPRTTSGKGRLWFWLWSQKGHPSASACGS [v42]
0.71	MCTKDLAPQAPPLLKENC [v51]

Same assay, conditions: 1 μM; relative to control (GST)

inhibition of phosphatase activity	Substance
100%	MCAGDLEQPEPPVAKKKKKNC [v33]
approximately 60%	MCTEDLEPPEPPLPKENC [v1]
approximately 90%	MCTEDLKPPEPPLPKENC [v35]
